Laboratory results taken from patent US20080014191A1.

Tests used:
[1] = molecular target: ΔF508 CFTR (Homo sapiens (Human)) (UniProt P13569); experiment: CFTR co-IP and Hsp90 immunoblot; HEK293 ΔF508 cells, ~60% knock-down of Aha1
[2] = molecular target: wild-type cystic fibrosis transmembrane conductance regulator (CFTR) (Homo sapiens (Human)) (UniProt P13569); experiment: CFTR co-IP, MudPIT MS; HT29 cells
[3] = molecular target: wild-type cystic fibrosis transmembrane conductance regulator (CFTR) (Homo sapiens (Human)) (UniProt P13569); experiment: CFTR co-IP, MudPIT MS; BHK cells
[4] = molecular target: wild-type cystic fibrosis transmembrane conductance regulator (CFTR) (Homo sapiens (Human)) (UniProt P13569); experiment: CFTR co-IP, MudPIT MS; Calu-3 cells

wild-type cystic fibrosis transmembrane conductance regulator (CFTR) (Homo sapiens (Human)), sequence (P13569 whole entry): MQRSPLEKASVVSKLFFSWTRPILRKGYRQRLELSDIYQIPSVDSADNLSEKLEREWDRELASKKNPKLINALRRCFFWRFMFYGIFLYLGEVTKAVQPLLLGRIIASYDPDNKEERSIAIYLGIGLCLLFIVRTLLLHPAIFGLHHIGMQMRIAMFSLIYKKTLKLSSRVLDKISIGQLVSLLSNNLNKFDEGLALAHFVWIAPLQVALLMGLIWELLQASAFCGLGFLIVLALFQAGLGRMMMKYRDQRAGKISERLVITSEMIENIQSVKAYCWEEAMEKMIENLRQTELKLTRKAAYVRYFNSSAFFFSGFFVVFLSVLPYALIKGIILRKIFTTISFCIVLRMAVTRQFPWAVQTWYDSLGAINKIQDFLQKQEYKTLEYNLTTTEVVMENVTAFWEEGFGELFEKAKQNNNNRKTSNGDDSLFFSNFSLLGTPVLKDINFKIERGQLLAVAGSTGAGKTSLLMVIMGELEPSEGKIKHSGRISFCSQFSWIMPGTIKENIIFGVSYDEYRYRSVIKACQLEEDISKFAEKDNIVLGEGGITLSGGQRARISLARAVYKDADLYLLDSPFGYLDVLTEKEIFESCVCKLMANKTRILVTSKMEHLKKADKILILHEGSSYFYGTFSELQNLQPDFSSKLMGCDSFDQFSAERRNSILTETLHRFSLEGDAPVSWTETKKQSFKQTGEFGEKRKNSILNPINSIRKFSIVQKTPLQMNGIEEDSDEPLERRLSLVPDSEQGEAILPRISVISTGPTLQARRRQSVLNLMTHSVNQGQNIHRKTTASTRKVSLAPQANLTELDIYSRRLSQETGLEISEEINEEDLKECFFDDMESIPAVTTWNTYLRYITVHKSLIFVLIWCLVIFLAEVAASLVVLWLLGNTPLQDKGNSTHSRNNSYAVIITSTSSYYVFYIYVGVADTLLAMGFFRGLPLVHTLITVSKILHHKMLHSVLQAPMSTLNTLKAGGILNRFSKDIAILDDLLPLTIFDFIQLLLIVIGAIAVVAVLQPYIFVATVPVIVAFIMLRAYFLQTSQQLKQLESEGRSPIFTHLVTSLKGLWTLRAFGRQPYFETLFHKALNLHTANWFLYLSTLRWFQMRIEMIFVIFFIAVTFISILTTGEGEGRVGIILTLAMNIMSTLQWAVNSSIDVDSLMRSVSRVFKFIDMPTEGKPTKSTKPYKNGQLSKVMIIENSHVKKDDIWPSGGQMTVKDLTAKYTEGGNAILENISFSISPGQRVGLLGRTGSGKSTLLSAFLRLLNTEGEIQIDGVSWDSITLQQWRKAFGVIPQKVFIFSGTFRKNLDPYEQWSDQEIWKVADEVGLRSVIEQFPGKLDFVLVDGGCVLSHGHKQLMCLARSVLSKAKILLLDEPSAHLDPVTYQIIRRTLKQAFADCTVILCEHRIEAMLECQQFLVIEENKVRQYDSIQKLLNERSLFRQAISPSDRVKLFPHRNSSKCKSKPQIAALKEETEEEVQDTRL
ΔF508 CFTR (Homo sapiens (Human)), sequence (P13569 other isoform, or with tags, fused parts or gaps mutant limits assumed): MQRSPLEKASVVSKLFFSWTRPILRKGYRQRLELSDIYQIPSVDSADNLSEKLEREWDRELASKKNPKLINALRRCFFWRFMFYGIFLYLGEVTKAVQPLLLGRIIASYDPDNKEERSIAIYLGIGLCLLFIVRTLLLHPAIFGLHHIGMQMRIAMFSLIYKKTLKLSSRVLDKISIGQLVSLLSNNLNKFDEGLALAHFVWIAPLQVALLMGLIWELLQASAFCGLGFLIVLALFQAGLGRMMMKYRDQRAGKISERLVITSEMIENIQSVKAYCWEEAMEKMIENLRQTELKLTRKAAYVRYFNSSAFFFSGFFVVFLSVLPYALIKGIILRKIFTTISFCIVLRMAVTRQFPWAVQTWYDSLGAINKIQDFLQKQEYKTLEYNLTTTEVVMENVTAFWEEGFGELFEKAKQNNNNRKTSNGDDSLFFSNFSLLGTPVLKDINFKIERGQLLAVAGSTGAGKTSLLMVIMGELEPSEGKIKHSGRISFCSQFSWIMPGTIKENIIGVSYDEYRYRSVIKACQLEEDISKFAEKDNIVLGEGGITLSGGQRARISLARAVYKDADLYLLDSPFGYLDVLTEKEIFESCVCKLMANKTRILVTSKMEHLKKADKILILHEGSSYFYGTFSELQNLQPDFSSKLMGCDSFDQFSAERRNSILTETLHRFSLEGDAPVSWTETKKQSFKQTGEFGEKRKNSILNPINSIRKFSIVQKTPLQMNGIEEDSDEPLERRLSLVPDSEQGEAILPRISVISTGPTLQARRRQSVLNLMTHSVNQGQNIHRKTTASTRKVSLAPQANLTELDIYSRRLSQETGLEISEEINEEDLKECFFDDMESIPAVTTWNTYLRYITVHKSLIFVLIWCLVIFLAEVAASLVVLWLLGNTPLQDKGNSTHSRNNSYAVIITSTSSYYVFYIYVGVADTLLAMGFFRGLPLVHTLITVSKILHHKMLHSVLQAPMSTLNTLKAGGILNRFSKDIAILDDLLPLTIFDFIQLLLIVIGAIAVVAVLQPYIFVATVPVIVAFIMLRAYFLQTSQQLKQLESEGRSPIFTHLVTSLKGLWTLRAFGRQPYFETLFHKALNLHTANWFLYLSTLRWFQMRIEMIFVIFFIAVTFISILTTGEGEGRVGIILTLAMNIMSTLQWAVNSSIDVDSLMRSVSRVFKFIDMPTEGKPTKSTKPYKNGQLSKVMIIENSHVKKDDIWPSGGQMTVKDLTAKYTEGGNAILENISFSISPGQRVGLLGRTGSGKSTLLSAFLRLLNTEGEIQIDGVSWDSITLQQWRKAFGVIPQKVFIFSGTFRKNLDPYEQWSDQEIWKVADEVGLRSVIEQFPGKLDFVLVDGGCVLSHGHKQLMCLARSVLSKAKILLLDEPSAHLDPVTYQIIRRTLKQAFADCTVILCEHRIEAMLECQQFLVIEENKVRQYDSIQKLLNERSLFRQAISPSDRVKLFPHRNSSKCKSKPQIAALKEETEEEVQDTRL

decrease of bound Hsp90 (ratio of Hsp90 to CFTR in the immunoprecipitate) after Aha1 dsRNA against scrambled control [1] | % sequence coverage [2] | total peptide spectra [2] | unique peptide spectra [2] | % sequence coverage [3] | total peptide spectra [3] | unique peptide spectra [3] | % sequence coverage [4] | total peptide spectra [4] | unique peptide spectra [4] | Substance
50 to 60% |  |  |  |  |  |  |  |  |  | Hsp90
 | 11% | 2 spectra | 2 spectra | 20% | 6 spectra | 5 spectra |  |  |  | NHERF-1 (from UniProt O14745 2-358)
 | 20% | 10 spectra | 7 spectra |  |  |  | 14% | 5 spectra | 4 spectra | NHERF-2 (from UniProt Q15599 1-337)
